According to article PMC6152951:

Molecular target: Strep-Flag-FAS I, recombinant 4'-phosphopantetheinylated M. tuberculosis fatty acid synthase I (M. tuberculosis)
Test: SEC; […] (100 mM potassium phosphate pH 7.2, 150 mM KCl, 1 mM TCEP, 1 mM EDTA); […]

“Strep-Flag-FAS I, recombinant 4'-phosphopantetheinylated M. tuberculosis fatty acid synthase I (enzyme)” showed a stoichiometry N of 6.
